According to article PMC2597217:

B1: DBE1 (dsDNA)
DNA 1: TGGTTTGTTTACCTTG
DNA 2: CAAGGTAAACAAACCA
B2: IRE (dsDNA)
DNA 1: TGGTTTGTTTTGCTTG
DNA 2: CAAGCAAAACAAACCA
B3: DBE2 (dsDNA)
DNA 1: TCTTGTTTACATTTTG
DNA 2: CAAAATGTAAACAAGA

Experiments:
[1] = target: T1, FoxO1 DBD 151-266 (human, UniProt Q12778 151-266); assay: EMSA
[2] = target: FoxO1 DBD 151-256 (human, UniProt Q12778 151-256); assay: EMSA
[3] = target: T1, FoxO1 DBD 151-266; assay: crystal structure

T1 sequence (Q12778 151-266): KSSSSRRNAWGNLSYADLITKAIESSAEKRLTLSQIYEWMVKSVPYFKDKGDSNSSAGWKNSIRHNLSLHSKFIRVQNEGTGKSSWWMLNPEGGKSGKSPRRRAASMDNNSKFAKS
FoxO1 DBD 151-256, sequence (Q12778 151-256): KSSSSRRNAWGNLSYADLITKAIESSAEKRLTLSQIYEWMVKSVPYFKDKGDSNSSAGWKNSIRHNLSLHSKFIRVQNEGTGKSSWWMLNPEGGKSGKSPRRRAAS

Binder | binding signal [1] | binding result [2] | binding result [3]
B1 | 2 fold affinity vs IRE |  | 
B2 |  | binds | binds
B3 | 5 fold affinity vs DBE1 |  | 
